# The supplement of paper PMC10567573
# ± gives the standard deviation.
# Assay: protein stability index of a GFP-peptide fusion (GPS, HEK-293T) (PSI 1-6); higher = more stable
# Settings: c terminus: a fixed tail appended
# 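Also: 24-mer peptide tiles fused after GFP, lentivirally expressed, FACS-sorted into six equal bins by GFP/DsRed ratio, decoded by Illumina sequencing, PSI is the read-weighted mean bin number.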
Sequence,protein stability index (treatment: DMSO),"protein stability index (treatment: MLN4924 1 uM, 8 h)"
TEDTPKVNADIEKVNQNQAKRCTV [NSDHL],5.42 ± 0.23,5.38 ± 0.21
TEEELRRIQTQKEQAKENENGELQ [ZC2HC1C],5.68 ± 0.23,5.54 ± 0.14
TETHVRDWVMWAVNEFSLKGVDFQ [ETS1],2.81 ± 0.94,2.72 ± 0.78
TEVLRNMGFAAKAMKSVHENMDLN [CHMP4C],3.3 ± 0.34,3.46 ± 0.16
TFDVDEYEHYERVENGDFNWIVPG [CDC14A],4.11 ± 0.26,4.17 ± 0.17
TFILKNPPENSDSGTGKKEKEKKN [EIF5],4.94 ± 0.3,5.137 ± 0.05
TFPDLESEFQAALSRKVAKLVHFL [MAGEA6],2.27 ± 0.2,2.22 ± 0.21
TFPKALTNGSFSPSGNNGSVNWRT [DLC1],3.14 ± 0.14,3.19 ± 0.23
TGGQTVVNPWIIIGGVATVVCQPN [SEPHS2],2.84 ± 0.76,2.62 ± 0.7
TIDKQREEMAKSSRASAARVGQLQ [LRRC45],4.67 ± 0.14,4.73 ± 0.14
TITMAHLLAAREDLSKIIRTSSGT [FAM98B],2.31 ± 0.33,2.38 ± 0.4
TIYCSLQLQALNRRFQQTQYLALP [DLX1],2.53 ± 0.48,2.42 ± 0.62
TKKKQWCYNCEEEAMYHCCWNTSY [ZMYND11],2.6 ± 0.25,2.45 ± 0.4
TKLSAQSAQYSQQLQAARNEYLLN [FCHSD1],3.19 ± 0.055,3.33 ± 0.18
TKMWHPNIYETGDVCISILHPPVD [CDC34],2.23 ± 0.2,2.12 ± 0.37
TKPTQGASSASEPQGLFVEALSVP [CLPTM1],4.13 ± 0.097,4.29 ± 0.19
TLMGKLKLKNTVTIQQEKLLAEKE [SASS6],3.406 ± 0.012,3.39 ± 0.58
TLRRIQASMAPAAALPPVPSPPAA [SERTAD1],3.6 ± 0.23,3.8 ± 0.31
TLRTLTGQDTMLKAMFSGRVEVLT [KCTD13],2.44 ± 0.22,2.37 ± 0.29
TLVMFQSLGERMNTFVRYLLKRIK [KCNK9],3 ± 0.54,2.73 ± 0.23
TMEDTLMTVKQYEAARLEYDAYRT [ARFIP2],3.88 ± 0.27,3.74 ± 0.3
TMLATRNFSAAKSLLNKKADGVKP [CAMK2B],3.73 ± 0.34,4.02 ± 0.32

Sequence,protein stability index (treatment: DMSO),"protein stability index (treatment: MLN4924 1 uM, 8 h)"
TMTNYDEAAMAIASLNGYRLGERV [ELAVL3],3 ± 0.35,3.17 ± 0.31
TNDSLSLKPSWFDFGFAILGFAYA [MIA2],2.99 ± 0.53,2.49 ± 0.4
TNYNNVCRKFPRDMKAMSPENQEY [RHOBTB2],3.8 ± 0.12,4.13 ± 0.12
TPEDSDPDHFDTAILFTRQDLCGV [ADAMTS4],4.15 ± 0.092,4.18 ± 0.17
TPHVYWAQRHRELYLRVELSDVQN [HACD3],2.28 ± 0.14,2.17 ± 0.24
TPKDKRVSNTPLRTVDGSPMMKAA [PALM],4.33 ± 0.3,4.39 ± 0.24
TPLDAFRMTSAAHYYPKLMSIMGN [GFOD1],2.12 ± 0.33,2.06 ± 0.093
TPPHLTSAMAENILAAACESETRK [NOL4L],4.16 ± 0.47,4.35 ± 0.2
TQDPSQPNSTKNQSLPKASPVTTS [LCOR],5.21 ± 0.19,5.12 ± 0.23
TQTSEECNGILTEKMEEEEQTCDP [ZNF396],5.5 ± 0.22,5.71 ± 0.17
TRNVQSVSIIDTELKVKDSQPIDL [TRIP13],4.32 ± 0.16,4.55 ± 0.19
TSEDLRLQCDAVNLAFGRRCEELE [TEKT4],4.51 ± 0.32,4.71 ± 0.29
TSLSLAQVGAKGDTANEIGQVLHF [SERPINB5],3.06 ± 0.28,3.18 ± 0.37
TSRRPSGTGTGPEDGRPSLGSPYG [PDLIM4],4.67 ± 0.21,4.67 ± 0.2
TSSLAQPGAYYPYERTLGQYQYER [IRX6],3.25 ± 0.38,3.22 ± 0.21
TSSSDDDEEVSGSSKTITAEIPDG [C18orf25],5.59 ± 0.19,5.49 ± 0.23
TSVGMSFVAGGISGTVAAVLTLPF [SLC25A39],2.95 ± 0.77,2.54 ± 0.25
TSYKVMVSNDSHTWVTVKNGSGDM [CPXM2],2.8 ± 0.38,2.94 ± 0.27
TSYRLQGLKPNSLYYFRLAARSPQ [PTPRD],2.33 ± 0.52,2.42 ± 0.39
TTFSTTSGYMEGYYTFHFLYFKDK [FBXO3],2.97 ± 0.74,2.41 ± 0.41
TVCDPARSCAIVEDDGLQSAFTAA [ADAMTS4],3.6 ± 0.85,4.16 ± 0.47
TVGIYFGLVYRIHSVLQGFIPLFQ [TMEM40],3.16 ± 0.58,3.16 ± 0.54
